From PMC10039853, “Increasing the melting temperature of VHH with the in silico free energy score” (Scientific Reports, 2023)
Changes are numbered by the printed parent chain. Names may count otherwise.

B1: D3-L11 A79W (VHH)
VHH: DVQLVESGGGSVQAGGSLRLSCAASGSTDSIEYMTWFRQAPGKAREGVAALYTHTGNTYYTDSVKGRFTISQDKAKNMWYLRMDSVKSEDTAIYTCGATRKYVPVRFALDQSSYDYWGQGTQVTVSS
notes: as the VHH chain of Sm1 (D3-L11 wild type, PDB 6JB8) with A79W; SAG tripeptide linker before the C-terminal 6xHis tag; source: ExpiCHO, transient transfection, purified from supernatant (His Mag Sepharose excel); not shown: His6, C-terminal, kept
B2: D3-L11 A79W (VHH)
VHH: B1 VHH
notes: as the VHH chain of m2 (D3-L11, PDB 6JB8) with the stated substitution; Second-round mutant; same construct as m2; also called W mutant; source: ExpiCHO, transient transfection, purified from supernatant (His Mag Sepharose excel); not shown: His6 (after a SAG tripeptide linker), C-terminal, kept
B3: D3-L11 A79R (VHH)
VHH: B1 VHH with W79R
notes: as the VHH chain of m2 (D3-L11, PDB 6JB8) with the stated substitution; Second-round mutant; same construct as m2; also called R mutant; source: ExpiCHO, transient transfection, purified from supernatant (His Mag Sepharose excel); not shown: His6 (after a SAG tripeptide linker), C-terminal, kept
B4: D3-L11 A79M (VHH)
VHH: B1 VHH with W79M
notes: as the VHH chain of m2 (D3-L11, PDB 6JB8) with the stated substitution; Second-round mutant; same construct as m2; also called M mutant; source: ExpiCHO, transient transfection, purified from supernatant (His Mag Sepharose excel); not shown: His6 (after a SAG tripeptide linker), C-terminal, kept
B5: D3-L11 A79V (VHH)
VHH: B1 VHH with W79V
notes: as the VHH chain of m2 (D3-L11, PDB 6JB8) with the stated substitution; Second-round mutant; same construct as m2; also called V mutant; source: ExpiCHO, transient transfection, purified from supernatant (His Mag Sepharose excel); not shown: His6 (after a SAG tripeptide linker), C-terminal, kept
B6: D3-L11 A79Y (VHH)
VHH: B1 VHH with W79Y
notes: as the VHH chain of m2 (D3-L11, PDB 6JB8) with the stated substitution; Second-round mutant; same construct as m2; also called Y mutant; source: ExpiCHO, transient transfection, purified from supernatant (His Mag Sepharose excel); not shown: His6 (after a SAG tripeptide linker), C-terminal, kept
B7: D3-L11 A79F (VHH)
VHH: B1 VHH with W79F
notes: as the VHH chain of m2 (D3-L11, PDB 6JB8) with the stated substitution; First-round mutant; same construct as m2; also called F mutant; source: ExpiCHO, transient transfection, purified from supernatant (His Mag Sepharose excel); not shown: His6 (after a SAG tripeptide linker), C-terminal, kept
B8: D3-L11 A79Q (VHH)
VHH: B1 VHH with W79Q
notes: as the VHH chain of m2 (D3-L11, PDB 6JB8) with the stated substitution; Second-round mutant; same construct as m2; also called Q mutant; source: ExpiCHO, transient transfection, purified from supernatant (His Mag Sepharose excel); not shown: His6 (after a SAG tripeptide linker), C-terminal, kept
B9: D3-L11 A79N (VHH)
VHH: B1 VHH with W79N
notes: as the VHH chain of m2 (D3-L11, PDB 6JB8) with the stated substitution; Second-round mutant; same construct as m2; also called N mutant; source: ExpiCHO, transient transfection, purified from supernatant (His Mag Sepharose excel); not shown: His6 (after a SAG tripeptide linker), C-terminal, kept
B10: D3-L11 A79C (VHH)
VHH: B1 VHH with W79C
notes: as the VHH chain of m2 (D3-L11, PDB 6JB8) with the stated substitution; Second-round mutant; same construct as m2; also called C mutant; source: ExpiCHO, transient transfection, purified from supernatant (His Mag Sepharose excel); not shown: His6 (after a SAG tripeptide linker), C-terminal, kept
B11: D3-L11 A79S (VHH)
VHH: B1 VHH with W79S
notes: as the VHH chain of m2 (D3-L11, PDB 6JB8) with the stated substitution; Second-round mutant; same construct as m2; also called S mutant; source: ExpiCHO, transient transfection, purified from supernatant (His Mag Sepharose excel); not shown: His6 (after a SAG tripeptide linker), C-terminal, kept
B12: D3-L11 A79T (VHH)
VHH: B1 VHH with W79T
notes: as the VHH chain of m2 (D3-L11, PDB 6JB8) with the stated substitution; Second-round mutant; same construct as m2; also called T mutant; source: ExpiCHO, transient transfection, purified from supernatant (His Mag Sepharose excel); not shown: His6 (after a SAG tripeptide linker), C-terminal, kept
B13: D3-L11 A79I (VHH)
VHH: B1 VHH with W79I
notes: as the VHH chain of m2 (D3-L11, PDB 6JB8) with the stated substitution; Second-round mutant; same construct as m2; also called I mutant; source: ExpiCHO, transient transfection, purified from supernatant (His Mag Sepharose excel); not shown: His6 (after a SAG tripeptide linker), C-terminal, kept
B14: D3-L11 A79L (VHH)
VHH: B1 VHH with W79L
notes: as the VHH chain of m2 (D3-L11, PDB 6JB8) with the stated substitution; Second-round mutant; same construct as m2; also called L mutant; source: ExpiCHO, transient transfection, purified from supernatant (His Mag Sepharose excel); not shown: His6 (after a SAG tripeptide linker), C-terminal, kept
B15: D3-L11 A79H (VHH)
VHH: B1 VHH with W79H
notes: as the VHH chain of m2 (D3-L11, PDB 6JB8) with the stated substitution; Second-round mutant; same construct as m2; also called H mutant; source: ExpiCHO, transient transfection, purified from supernatant (His Mag Sepharose excel); not shown: His6 (after a SAG tripeptide linker), C-terminal, kept
B16: D3-L11 A79P (VHH)
VHH: B1 VHH with W79P
notes: as the VHH chain of m2 (D3-L11, PDB 6JB8) with the stated substitution; Second-round mutant; same construct as m2; Too little protein for SPR; also called P mutant; source: ExpiCHO, transient transfection, purified from supernatant (His Mag Sepharose excel); not shown: His6 (after a SAG tripeptide linker), C-terminal, kept
B17: D3-L11 A79E (VHH)
VHH: B1 VHH with W79E
notes: as the VHH chain of m2 (D3-L11, PDB 6JB8) with the stated substitution; Second-round mutant; same construct as m2; Too little protein for SPR; also called E mutant; source: ExpiCHO, transient transfection, purified from supernatant (His Mag Sepharose excel); not shown: His6 (after a SAG tripeptide linker), C-terminal, kept
B18: D3-L11 A79K (VHH)
VHH: B1 VHH with W79K
notes: as the VHH chain of m2 (D3-L11, PDB 6JB8) with the stated substitution; Second-round mutant; same construct as m2; Too little protein for SPR; also called K mutant; source: ExpiCHO, transient transfection, purified from supernatant (His Mag Sepharose excel); not shown: His6 (after a SAG tripeptide linker), C-terminal, kept

biological target: T1, hen egg lysozyme (Gallus gallus (hen egg white), UniProt P00698); assay: SPR; Biacore T200; lysozyme immobilised on Sensor Chip CM5 by amine coupling (200 RU); VHH injected 300 s, dissociation 600 s in PBST (PBS, 0.005% Tween 20); 1:1 binding model; duplicate; conditions: both partners purified
T1 construct: hen egg lysozyme (HEL), the antigen of D3-L11; also in PDB 6JB8; The supplier is named for the ELISA only; also called HEL; antigen lysozyme; source: bought: Sigma-Aldrich, Cat No. L6876
T1 sequence (P00698 19-147): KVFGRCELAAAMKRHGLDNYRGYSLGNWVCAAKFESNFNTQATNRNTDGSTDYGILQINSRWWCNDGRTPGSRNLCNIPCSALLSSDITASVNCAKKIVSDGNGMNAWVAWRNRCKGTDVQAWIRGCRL

Row | Kd | Binder
1 | 0.0149 ± 0.0001 nM | B1

biological target: T2, hen egg lysozyme (Gallus gallus (hen egg white), UniProt P00698); assay: SPR; Biacore T200; lysozyme immobilised on Sensor Chip CM5 by amine coupling to 200 RU; VHH injected 300 s, dissociation 600 s; running buffer PBST (PBS, 0.005% Tween 20); duplicate; 1:1 binding model; conditions: both partners purified
T2 construct: hen egg lysozyme (HEL), antigen of VHH D3-L11; also in the complex structure PDB 6JB8; also called HEL; antigen lysozyme; source: bought: Sigma-Aldrich, Cat No. L6876 (named for the ELISA)
T2 sequence (P00698 19-147): as above

Row | fold decrease in affinity (KD) against wild type | Binder
2 | < 10 fold | B2
3 | < 10 fold | B3
4 | < 10 fold | B4
5 | < 2 fold | B5
6 | < 2 fold | B6
7 | < 10 fold | B7
8 | < 10 fold | B8
9 | < 10 fold | B9
10 | < 2 fold | B10
11 | < 10 fold | B11
12 | < 10 fold | B12
13 | 1.6 fold | B13
14 | < 10 fold | B14
15 | < 10 fold | B15

biological target: T2, hen egg lysozyme; assay: ELISA; lysozyme (1 ug/mL) coated on 384-well MaxiSorp plate overnight at 4 °C; serial concentrations of VHH in 5% BlockingOne in TBST, 1 h at room temperature; detected with Penta-His HRP conjugate; conditions: both partners purified

Row | binding result | fold decrease in affinity (EC50) against wild type | Binder
16 | binds |  | B16
17 |  | < 10 fold | B4
18 |  | < 10 fold | B5
19 | binds |  | B17
20 |  | < 10 fold | B9
21 |  | < 10 fold | B11
22 |  | < 10 fold | B14
23 | binds |  | B18
